The target of assay [1] is T1, full-length BiP (BiP FL, residues 28–654), His6-tag removed (human, UniProt P11021 28-654). The assay can be described thus: MST; 10 mM AMPPNP.
For assay [2], the target named is T1, full-length BiP (BiP FL, residues …). The assay can be described thus: MST; 10 mM ATP.
The target is the same in assay [3]. The assay can be described thus: MST; no nucleotide.
Assay [4] shares this target. The assay can be described thus: MST; 10 mM ADP.
Assay [5] deals with BiP ATPase domain (residues 28–405), His6-tag removed (human, UniProt P11021 28-405). The assay can be described thus: MST.
Chain of BiP ATPase domain (residues 28–405), His6-tag removed (P11021 28-405): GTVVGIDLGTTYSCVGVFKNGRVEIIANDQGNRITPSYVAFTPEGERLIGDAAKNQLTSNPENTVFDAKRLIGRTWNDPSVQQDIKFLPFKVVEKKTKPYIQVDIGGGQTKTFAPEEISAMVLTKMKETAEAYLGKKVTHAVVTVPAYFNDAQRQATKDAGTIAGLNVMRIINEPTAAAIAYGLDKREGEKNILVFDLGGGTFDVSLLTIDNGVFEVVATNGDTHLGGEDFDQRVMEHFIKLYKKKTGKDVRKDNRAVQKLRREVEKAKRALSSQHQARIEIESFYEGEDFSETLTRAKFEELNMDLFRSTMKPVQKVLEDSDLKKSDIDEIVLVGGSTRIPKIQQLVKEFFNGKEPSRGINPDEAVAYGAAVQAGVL

This is an account of results in PMC4337721 (2015).

As usually defined, the Kd is a measure of binding affinity in units of concentration. A higher Kd goes with lower affinity.

T1 sequence (P11021 28-654): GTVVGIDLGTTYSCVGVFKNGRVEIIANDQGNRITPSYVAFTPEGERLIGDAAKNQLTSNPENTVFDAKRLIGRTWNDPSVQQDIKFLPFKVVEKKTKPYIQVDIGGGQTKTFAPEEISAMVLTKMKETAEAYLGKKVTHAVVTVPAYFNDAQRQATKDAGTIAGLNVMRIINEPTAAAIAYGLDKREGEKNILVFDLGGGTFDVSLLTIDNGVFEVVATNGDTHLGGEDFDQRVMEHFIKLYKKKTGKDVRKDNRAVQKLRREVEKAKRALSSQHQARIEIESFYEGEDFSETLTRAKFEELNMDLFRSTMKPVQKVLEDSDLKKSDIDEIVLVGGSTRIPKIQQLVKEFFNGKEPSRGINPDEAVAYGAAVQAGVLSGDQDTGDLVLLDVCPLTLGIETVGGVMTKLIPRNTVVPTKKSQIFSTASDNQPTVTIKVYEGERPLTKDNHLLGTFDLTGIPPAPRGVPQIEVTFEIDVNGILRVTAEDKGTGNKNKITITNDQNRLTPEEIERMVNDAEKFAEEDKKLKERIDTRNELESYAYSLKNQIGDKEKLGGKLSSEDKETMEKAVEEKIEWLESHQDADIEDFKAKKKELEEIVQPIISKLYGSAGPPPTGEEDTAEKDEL

B1: Ire1 luminal domain, complete (region I–V, residues 24–440) (domain or fragment)
chain: STVTLPETLLFVSTLDGSLHAVSKRTGSIKWTLKEDPVLQVPTHVEEPAFLPDPNDGSLYTLGSKNNEGLTKLPFTIPELVQASPCRSSDGILYMGKKQDIWYVIDLLTGEKQQTLSSAFADSLCPSTSLLYLGRTEYTITMYDTKTRELRWNATYFDYAASLPEDDVDYKMSHFVSNGDGLVVTVDSESGDVLWIQNYASPVVAFYVWQREGLRKVMHINVAVETLRYLTFMSGEVGRITKWKYPFPKETEAKSKLTPTLYVGKYSTSLYASPSMVHEGVAVVPRGSTLPLLEGPQTDGVTIGDKGECVITPSTDVKFDPGLKSKNKLNYLRNYWLLIGHHETPLSASTKMLERFPNNLPKHRENVIPADSEKKSFEEVINLVDQTSENAPTTVSRDVEEKPAHAPARPEAPVDSM
On to B1, for which the equilibrium dissociation constant (Kd) came out at 1140 nM in assay [1], 1090 nM in assay [2], 1920 nM in assay [3] and 1200 nM in assay [4].

B2: Perk luminal domain region II–IV (printed residues 54–403) (domain or fragment)
chain: LVIISTLDGRIAALDPENHGKKQWDLDVGSGSLVSSSLSKPEVFGNKMIIPSLDGALFQWDQDRESMETVPFTVESLLESSYKFGDDVVLVGGKSLTTYGLSAYSGKVRYICSALGCRQWDSDEMEQEEDILLLQRTQKTVRAVGPRSGNEKWNFSVGHFELRYIPDMETRAGFIESTFKPNENTEESKIISDVEEQEAAIMDIVIKVSVADWKVMAFSKKGGHLEWEYQFCTPIASAWLLKDGKVIPISLFDDTSYTSNDDVLEDEEDIVEAARGATENSVYLGMYRGQLYLQSSVRI
Turning to B2, the Kd in assay [5] was determined as 2280 nM.

B3: Perk luminal domain region II–V (residues 105–509) (domain or fragment)
chain: LVIISTLDGRIAALDPENHGKKQWDLDVGSGSLVSSSLSKPEVFGNKMIIPSLDGALFQWDQDRESMETVPFTVESLLESSYKFGDDVVLVGGKSLTTYGLSAYSGKVRYICSALGCRQWDSDEMEQEEDILLLQRTQKTVRAVGPRSGNEKWNFSVGHFELRYIPDMETRAGFIESTFKPNENTEESKIISDVEEQEAAIMDIVIKVSVADWKVMAFSKKGGHLEWEYQFCTPIASAWLLKDGKVIPISLFDDTSYTSNDDVLEDEEDIVEAARGATENSVYLGMYRGQLYLQSSVRISEKFPSSPKALESVTNENAIIPLPTIKWKPLIHSPSRTPVLVGSDEFDKCLSNDKFSHEEYSNGALSILQYPYDNGYYLPYYKRERNKRSTQITVRFLDNPHYNKN
In assay [5], B3 yielded a Kd of 2690 nM.

B4: Perk luminal domain, complete (region I–V, residues 54–509) (domain or fragment)
chain: TSATRVPAAGAVAAAEVTVEDAEALPAAAGEQEPRGPEPDDETELRPRGRSLVIISTLDGRIAALDPENHGKKQWDLDVGSGSLVSSSLSKPEVFGNKMIIPSLDGALFQWDQDRESMETVPFTVESLLESSYKFGDDVVLVGGKSLTTYGLSAYSGKVRYICSALGCRQWDSDEMEQEEDILLLQRTQKTVRAVGPRSGNEKWNFSVGHFELRYIPDMETRAGFIESTFKPNENTEESKIISDVEEQEAAIMDIVIKVSVADWKVMAFSKKGGHLEWEYQFCTPIASAWLLKDGKVIPISLFDDTSYTSNDDVLEDEEDIVEAARGATENSVYLGMYRGQLYLQSSVRISEKFPSSPKALESVTNENAIIPLPTIKWKPLIHSPSRTPVLVGSDEFDKCLSNDKFSHEEYSNGALSILQYPYDNGYYLPYYKRERNKRSTQITVRFLDNPHYNKN
For B4, the Kd worked out at 850 nM in assay [1], 830 nM in assay [2], 1340 nM in assay [3] and 1370 nM in assay [4].

B5: Ire1 luminal domain region II–IV (residues 32–390) (domain or fragment)
chain: LLFVSTLDGSLHAVSKRTGSIKWTLKEDPVLQVPTHVEEPAFLPDPNDGSLYTLGSKNNEGLTKLPFTIPELVQASPCRSSDGILYMGKKQDIWYVIDLLTGEKQQTLSSAFADSLCPSTSLLYLGRTEYTITMYDTKTRELRWNATYFDYAASLPEDDVDYKMSHFVSNGDGLVVTVDSESGDVLWIQNYASPVVAFYVWQREGLRKVMHINVAVETLRYLTFMSGEVGRITKWKYPFPKETEAKSKLTPTLYVGKYSTSLYASPSMVHEGVAVVPRGSTLPLLEGPQTDGVTIGDKGECVITPSTDVKFDPGLKSKNKLNYLRNYWLLIGHHETPLSASTKMLERFPNNLPKHRENV
Consider B5, for which binding in assay [5] was characterised by a dissociation constant (Kd) of 1550 nM.

B6: Ire1 luminal domain region I–IV (residues 24–390) (domain or fragment)
chain: STVTLPETLLFVSTLDGSLHAVSKRTGSIKWTLKEDPVLQVPTHVEEPAFLPDPNDGSLYTLGSKNNEGLTKLPFTIPELVQASPCRSSDGILYMGKKQDIWYVIDLLTGEKQQTLSSAFADSLCPSTSLLYLGRTEYTITMYDTKTRELRWNATYFDYAASLPEDDVDYKMSHFVSNGDGLVVTVDSESGDVLWIQNYASPVVAFYVWQREGLRKVMHINVAVETLRYLTFMSGEVGRITKWKYPFPKETEAKSKLTPTLYVGKYSTSLYASPSMVHEGVAVVPRGSTLPLLEGPQTDGVTIGDKGECVITPSTDVKFDPGLKSKNKLNYLRNYWLLIGHHETPLSASTKMLERFPNNLPKHRENV
B6 showed a Kd in assay [5] of 1860 nM.

B7: Ire1 luminal domain region II–V (residues 32–440) (domain or fragment)
chain: LLFVSTLDGSLHAVSKRTGSIKWTLKEDPVLQVPTHVEEPAFLPDPNDGSLYTLGSKNNEGLTKLPFTIPELVQASPCRSSDGILYMGKKQDIWYVIDLLTGEKQQTLSSAFADSLCPSTSLLYLGRTEYTITMYDTKTRELRWNATYFDYAASLPEDDVDYKMSHFVSNGDGLVVTVDSESGDVLWIQNYASPVVAFYVWQREGLRKVMHINVAVETLRYLTFMSGEVGRITKWKYPFPKETEAKSKLTPTLYVGKYSTSLYASPSMVHEGVAVVPRGSTLPLLEGPQTDGVTIGDKGECVITPSTDVKFDPGLKSKNKLNYLRNYWLLIGHHETPLSASTKMLERFPNNLPKHRENVIPADSEKKSFEEVINLVDQTSENAPTTVSRDVEEKPAHAPARPEAPVDSM
In turn, B7 came in with a Kd in assay [5] of 2020 nM.

B8: Perk luminal domain region I–IV (residues 54–403) (domain or fragment)
chain: TSATRVPAAGAVAAAEVTVEDAEALPAAAGEQEPRGPEPDDETELRPRGRSLVIISTLDGRIAALDPENHGKKQWDLDVGSGSLVSSSLSKPEVFGNKMIIPSLDGALFQWDQDRESMETVPFTVESLLESSYKFGDDVVLVGGKSLTTYGLSAYSGKVRYICSALGCRQWDSDEMEQEEDILLLQRTQKTVRAVGPRSGNEKWNFSVGHFELRYIPDMETRAGFIESTFKPNENTEESKIISDVEEQEAAIMDIVIKVSVADWKVMAFSKKGGHLEWEYQFCTPIASAWLLKDGKVIPISLFDDTSYTSNDDVLEDEEDIVEAARGATENSVYLGMYRGQLYLQSSVRI
As to B8, binding in assay [5] was put at a Kd of 2350 nM.
